# Experimental data reported in publication doi:10.1101/2022.07.28.501832.
# Target: human RXFP4 on stably transfected CHO-K1 cells (human) (UniProt Q8TDU9)
# Assay: competitive binding of a europium-labelled ligand on cells
# Chain of UniProt Q8TDU9 (Q8TDU9 whole entry): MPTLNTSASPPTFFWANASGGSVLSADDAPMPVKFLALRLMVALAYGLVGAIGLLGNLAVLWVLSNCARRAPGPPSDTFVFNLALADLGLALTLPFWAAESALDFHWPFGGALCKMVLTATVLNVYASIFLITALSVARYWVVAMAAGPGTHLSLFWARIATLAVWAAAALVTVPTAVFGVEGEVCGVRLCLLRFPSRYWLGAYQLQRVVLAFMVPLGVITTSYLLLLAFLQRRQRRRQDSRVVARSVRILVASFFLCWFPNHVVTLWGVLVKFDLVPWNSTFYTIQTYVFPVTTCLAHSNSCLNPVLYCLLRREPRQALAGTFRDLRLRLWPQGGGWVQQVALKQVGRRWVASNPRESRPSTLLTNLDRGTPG
substance,measurement,value
recombinant two-chain human insulin-like peptide 5 (INSL5) (ligand),pKi,8.19
